B1: CHIP R225∗, recombinant, C-terminal His tag (enzyme, human, UniProt Q9UNE7-1 1-224, looked up)
chain: MKGKEEKEGGARLGAGGGSPEKSPSAQELKEQGNRLFVGRKYPEAAACYGRAITRNPLVAVYYTNRALCYLKMQQHEQALADCRRALELDGQSVKAHFFLGQCQLEMESYDEAIANLQRAYSLAKEQRLNFGDDIPSALRIAKKKRWNSIEERRIHQESELHSYLSRLIAAERERELEECQRNHEGDEDDSHVRAQQACIEAKHDKYMADMDELFSQVDEKRKK
notes: CHIP (STUB1), human, SCA48-associated nonsense variant R225∗ (stop in place of R225, U-box domain lost); source: PD-10 desalting for mass photometry, size exclusion for ubiquitination assays
B2: CHIP P228S, recombinant, C-terminal His tag (enzyme, human, UniProt Q9UNE7-1 1-303, looked up)
chain: MKGKEEKEGGARLGAGGGSPEKSPSAQELKEQGNRLFVGRKYPEAAACYGRAITRNPLVAVYYTNRALCYLKMQQHEQALADCRRALELDGQSVKAHFFLGQCQLEMESYDEAIANLQRAYSLAKEQRLNFGDDIPSALRIAKKKRWNSIEERRIHQESELHSYLSRLIAAERERELEECQRNHEGDEDDSHVRAQQACIEAKHDKYMADMDELFSQVDEKRKKRDISDYLCGKISFELMREPCITPSGITYDRKDIEEHLQRVGHFDPVTRSPLTQEQLIPNLAMKEVIDAFISENGWVEDY
notes: CHIP (STUB1), human, SCA48-associated U-box variant P228S; source: PD-10 desalting for mass photometry, size exclusion for ubiquitination assays; not shown: His tag, C-terminal, kept
B3: CHIP G33S, recombinant, C-terminal His tag (enzyme, human, UniProt Q9UNE7-1 1-303, looked up)
chain: MKGKEEKEGGARLGAGGGSPEKSPSAQELKEQSNRLFVGRKYPEAAACYGRAITRNPLVAVYYTNRALCYLKMQQHEQALADCRRALELDGQSVKAHFFLGQCQLEMESYDEAIANLQRAYSLAKEQRLNFGDDIPSALRIAKKKRWNSIEERRIHQESELHSYLSRLIAAERERELEECQRNHEGDEDDSHVRAQQACIEAKHDKYMADMDELFSQVDEKRKKRDIPDYLCGKISFELMREPCITPSGITYDRKDIEEHLQRVGHFDPVTRSPLTQEQLIPNLAMKEVIDAFISENGWVEDY
notes: CHIP (STUB1), human, SCA48-associated TPR-domain variant G33S; source: PD-10 desalting for mass photometry, size exclusion for ubiquitination assays; not shown: His tag, C-terminal, kept
B4: CHIP I53T, recombinant, C-terminal His tag (enzyme, human, UniProt Q9UNE7-1 1-303, looked up)
chain: MKGKEEKEGGARLGAGGGSPEKSPSAQELKEQGNRLFVGRKYPEAAACYGRATTRNPLVAVYYTNRALCYLKMQQHEQALADCRRALELDGQSVKAHFFLGQCQLEMESYDEAIANLQRAYSLAKEQRLNFGDDIPSALRIAKKKRWNSIEERRIHQESELHSYLSRLIAAERERELEECQRNHEGDEDDSHVRAQQACIEAKHDKYMADMDELFSQVDEKRKKRDIPDYLCGKISFELMREPCITPSGITYDRKDIEEHLQRVGHFDPVTRSPLTQEQLIPNLAMKEVIDAFISENGWVEDY
notes: CHIP (STUB1), human, SCA48-associated TPR-domain variant I53T; source: PD-10 desalting for mass photometry, size exclusion for ubiquitination assays
B5: CHIP R241W, recombinant, C-terminal His tag (enzyme, human, UniProt Q9UNE7-1 1-303, looked up)
chain: MKGKEEKEGGARLGAGGGSPEKSPSAQELKEQGNRLFVGRKYPEAAACYGRAITRNPLVAVYYTNRALCYLKMQQHEQALADCRRALELDGQSVKAHFFLGQCQLEMESYDEAIANLQRAYSLAKEQRLNFGDDIPSALRIAKKKRWNSIEERRIHQESELHSYLSRLIAAERERELEECQRNHEGDEDDSHVRAQQACIEAKHDKYMADMDELFSQVDEKRKKRDIPDYLCGKISFELMWEPCITPSGITYDRKDIEEHLQRVGHFDPVTRSPLTQEQLIPNLAMKEVIDAFISENGWVEDY
notes: CHIP (STUB1), human, SCA48-associated U-box variant R241W; source: PD-10 desalting for mass photometry, size exclusion for ubiquitination assays
B6: CHIP F37L, recombinant, C-terminal His tag (enzyme, human, UniProt Q9UNE7-1 1-303, looked up)
chain: MKGKEEKEGGARLGAGGGSPEKSPSAQELKEQGNRLLVGRKYPEAAACYGRAITRNPLVAVYYTNRALCYLKMQQHEQALADCRRALELDGQSVKAHFFLGQCQLEMESYDEAIANLQRAYSLAKEQRLNFGDDIPSALRIAKKKRWNSIEERRIHQESELHSYLSRLIAAERERELEECQRNHEGDEDDSHVRAQQACIEAKHDKYMADMDELFSQVDEKRKKRDIPDYLCGKISFELMREPCITPSGITYDRKDIEEHLQRVGHFDPVTRSPLTQEQLIPNLAMKEVIDAFISENGWVEDY
notes: CHIP (STUB1), human, SCA48-associated TPR-domain variant F37L; source: PD-10 desalting for mass photometry, size exclusion for ubiquitination assays
B7: CHIP A67T, recombinant, C-terminal His tag (enzyme, human, UniProt Q9UNE7-1 1-303, looked up)
chain: MKGKEEKEGGARLGAGGGSPEKSPSAQELKEQGNRLFVGRKYPEAAACYGRAITRNPLVAVYYTNRTLCYLKMQQHEQALADCRRALELDGQSVKAHFFLGQCQLEMESYDEAIANLQRAYSLAKEQRLNFGDDIPSALRIAKKKRWNSIEERRIHQESELHSYLSRLIAAERERELEECQRNHEGDEDDSHVRAQQACIEAKHDKYMADMDELFSQVDEKRKKRDIPDYLCGKISFELMREPCITPSGITYDRKDIEEHLQRVGHFDPVTRSPLTQEQLIPNLAMKEVIDAFISENGWVEDY
notes: CHIP (STUB1), human, SCA48-associated TPR-domain variant A67T; source: PD-10 desalting for mass photometry, size exclusion for ubiquitination assays
B8: CHIP P57L, recombinant, C-terminal His tag (enzyme, human, UniProt Q9UNE7-1 1-303, looked up)
chain: MKGKEEKEGGARLGAGGGSPEKSPSAQELKEQGNRLFVGRKYPEAAACYGRAITRNLLVAVYYTNRALCYLKMQQHEQALADCRRALELDGQSVKAHFFLGQCQLEMESYDEAIANLQRAYSLAKEQRLNFGDDIPSALRIAKKKRWNSIEERRIHQESELHSYLSRLIAAERERELEECQRNHEGDEDDSHVRAQQACIEAKHDKYMADMDELFSQVDEKRKKRDIPDYLCGKISFELMREPCITPSGITYDRKDIEEHLQRVGHFDPVTRSPLTQEQLIPNLAMKEVIDAFISENGWVEDY
notes: CHIP (STUB1), human, SCA48-associated TPR-domain variant P57L; source: PD-10 desalting for mass photometry, size exclusion for ubiquitination assays

As usually defined, the stoichiometry N is a count of units in the complex or per binding partner.

One data set deals with the molecule itself. The data set can be described thus: mass photometry; Refeyn OneMP; CHIP at 50 nM final (a subset also at 20 nM and 100 nM) in 20 mM HEPES pH 8.0, 200 mM NaCl; self-association, oligomeric states by mass.
As for B1, the “stoichiometry N” value came out at 2.

Another data set deals with the molecule itself. Described as above. The source holds these as a separate data set.
For B2, the binding result is “binds”.

With B3, the binding result is reported as “binds”.

In the case of B4, the binding result was “binds”.

Consider B5, for which the binding result is “binds”.

On to B6, for which the binding result is reported as “binds”.

Take B7: the binding result is on record as “binds”.

Consider B8, for which the binding result is “binds”.

Source of the values: article PMC13570301, “Domain-dependent uncoupling of the co-chaperone and E3 ubiquitin ligase CHIP underlies heterogeneity in spinocerebellar ataxia 48” (The Journal of Biological Chemistry, 2026).
